In patent publication US20050233350A1:

Key:
[1] = biological target: T1, recombinant HLA-A2.1 protein with β2-microglobulin (human); assay: cell free competition assay: inhibition of binding of fluorescent [..] to recombinant HLA-A2.1 and β2-microglobulin, gel filtration, 4 experiments; details: remark: other sources report otherwise
[2] = biological target: T1, recombinant HLA-A2.1 protein with …; assay: cell free HLA-A2.1 peptide binding (competition) assay, HA-1^R against HA-1^H; details: remark: other sources report otherwise

Binder	IC50 [1] [nM]	fold lower binding affinity against the HA-1^H peptide [2] [fold]
VLRDDLLEA [HA-1^R peptide … (allelic counterpart of HA-1, synthetic)]	365	10
VLHDDLLEA [HA-1^H peptide … (minor histocompatibility antigen HA-1 nonapeptide, synthetic)]	30	
